According to PMC3337157 (Small GTPases, 2011):

Target: T1, Rnd1 mutant W66L (residues 5-200) (UniProt Q92730 5-200, W66L)
T1 sequence (looked up): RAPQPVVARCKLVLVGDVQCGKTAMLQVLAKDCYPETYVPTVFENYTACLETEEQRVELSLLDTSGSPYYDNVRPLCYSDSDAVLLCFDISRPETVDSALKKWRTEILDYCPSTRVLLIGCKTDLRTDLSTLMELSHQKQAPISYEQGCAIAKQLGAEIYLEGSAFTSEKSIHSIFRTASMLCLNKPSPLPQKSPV
Assay: ITC

B1: plexin-B1 Rho GTPase binding domain (RBD) (domain or fragment)
chain: DVEYRPLTLNALLAVGPGAGEAQGVPVKVLDCDTISQAKEKMLDQLYKGVPLTQRPDPRTLDVEWRSGVAGHLILSDEDVTSEVQGLWRRLNTLQHYKVPDGATVALVPCLTKHVLRENQ
  Ka: 209000 M⁻¹
  Kd: 4.8 ± 0.5 µM
  dH: -3.9 ± 0.1 kcal/mol
  stoichiometry N: 0.98
